Experimental data from patent publication US10144929B2, “Polypeptide inhibitors of Smad3 polypeptide activities” (Mayo Foundation for Medical Education and Research, priority 2016, dated 2018).

B1: TAT-LC: SNX9 LC (low complexity) domain fused to cell penetrating TAT polypeptide; negative control (protein)
chain: DGKDQFSCGNSVADQAFLDSLSASTAQASSSAASNNHQVGSGNDPWSAWSASKSGNWESSEGWGAQPEGAGAQRNTNTPNNWDTAFGHPQAYQGPATGDDDDWDEDWDGPKSSSYFKDSESADAGGAQRGNSRASSSSMKI
modifications: left off: a dimerising Fc or GST
B2: TAT-SH3: TAT-SNX9(SH3) fusion polypeptide containing the full length SH3 domain (amino acids 1 to 62) (protein)
chain: MATKARVMYDFAAEPGNNELTVNEGEIITITNPDVGGGWLEGRNIKGERGLVPTDYVEILPS
modifications: left off: small tags and cut ends

What was measured:
Type in all cases: cell-based
[1] = test system: AKR-2B cells; assay: Soft agar colony formation (anchorage-independent growth, AIG); settings: 1.5 μM polypeptide, TGFβ 10 ng/mL, seven days
Method: (§1) FIGS. 2A-C. TAT-SH3 inhibits Smad3-dependent responses. (A) AKR-2B cells were transiently transfected with a Smad3 (3TP), Smad2 (ARE), or Smad1/5/8 (BRE) reporter construct, and luciferase activity determined following 12 hours incubation in the absence (−) or presence (+) of the indicated ligand (5 ng/mL TGFβ; 10 ng/mL BMP4) or TAT-SNX9(SH3) fusion polypeptide (1.5 μM). Data represent the mean+/−SEM of three experiments. (B) RT-PCR analysis of Smad3 (PAI-1 and CTGF) and Smad2 (MMP2) responsive gene following 24 hour treatment of AKR-2B cells with the indicated concentration of TAT-SNX9(SH3) fusion polypeptide or 5 ng/mL TGFβ. Loading was verified by GAPDH expression. (C) Soft agar colony formation was performed following seven days growth in the presence (+) or absence (−) of TGFβ (10 ng/mL) or the indicated TAT-SNX9(SH3) fusion polypeptide (1.5 μM). […]
(§2) FIGS. 3A-E. Inhibition of Smad3 signaling by a defined region of the SH3 domain in SNX9. […] (B) Nuclear fractions were prepared and assessed as in FIG. 1B following transduction with the indicated TAT-SNX9(SH3) fusion polypeptide (Left). Quantitation (mean+/−sd) of nuclear pSmad2 or pSmad3 from 2 experiments (Right). (C) Immunofluorescence of nuclear Smad3 was determined as in FIG. 1C from 30 cells in each of two experiments in the absence (−) or presence (+) of 5 ng/mL TGFβ and the indicated TAT-SNX9(SH3) fusion polypeptide (1.5 μM). […]

[2] = target: T1, pSmad3 (Mus musculus, UniProt Q8BUN5); assay: Nuclear import of pSmad3 (nuclear fractions Western, immunofluorescence) in AKR-2B cells; settings: 90 minutes transduction, TGFβ 5 ng/mL 1 hour
T1 construct: endogenous in cells; host or cells: AKR-2B cells
Method: FIGS. 1A-C. SH3 domain of sorting nexin 9 (SNX9) specifically binds pSmad3 and prevents nuclear import. (A) Cartoon depicting domains in full length (FL) SNX9 and constructs used for GST pull down assays. Lysates from AKR-2B cells untreated (−) or stimulated (+) for 45 minutes with 5 ng/mL TGFβ were incubated with GST beads or the indicated fusion polypeptides immobilized on GST beads. Bound polypeptides were eluted and assessed by Western analysis for pSmad3 or pSmad2. Cell lysate reflects signal obtained from 10 μg total protein. (B) AKR-2B cells were transduced for 90 minutes with the indicated concentrations of the TAT-SNX9(SH3) fusion polypeptides. […] Quantitation of nuclear pSmads was performed with Image J software and represents the mean+/−sd of two experiments (Right). […] Quantitation of nuclear Smad3 from 30 cells in each of two experiments (Right).
as §2

[3] = test system: Smad3 targets (PAI-1, CTGF, Smad7); assay: RT-PCR/qPCR/Western of Smad3 responsive genes in AKR-2B cells; settings: 5 ng/mL TGFβ, 24 hours
Method: as §1, §2

[4] = test system: Smad2 (ARE) reporter; assay: Smad2 (ARE) luciferase reporter assay in AKR-2B cells; settings: 1.5 μM polypeptide, 5 ng/mL TGFβ, 12 hours
Method: (§3) FIGS. 2A-C. TAT-SH3 inhibits Smad3-dependent responses. (A) AKR-2B cells were transiently transfected with a Smad3 (3TP), Smad2 (ARE), or Smad1/5/8 (BRE) reporter construct, and luciferase activity determined following 12 hours incubation in the absence (−) or presence (+) of the indicated ligand (5 ng/mL TGFβ; 10 ng/mL BMP4) or TAT-SNX9(SH3) fusion polypeptide (1.5 μM). Data represent the mean+/−SEM of three experiments. (B) RT-PCR analysis of Smad3 (PAI-1 and CTGF) and Smad2 (MMP2) responsive gene following 24 hour treatment of AKR-2B cells with the indicated concentration of TAT-SNX9(SH3) fusion polypeptide or 5 ng/mL TGFβ. Loading was verified by GAPDH expression. (C) Soft agar colony formation was performed following seven days growth in the presence (+) or absence (−) of TGFβ (10 ng/mL) or the indicated TAT-SNX9(SH3) fusion polypeptide (1.5 μM). Data reflects the mean+/−sd of triplicate wells from three experiments.
(§4) For luciferase assays, 2×10^5 cells were plated in six well plates containing 10% FBS/DMEM. […] Cells were harvested in 200 μL of reporter lysis buffer (Promega, Madison, Wis.), and luciferase activity was determined in a Berthold Lumat 9507 luminometer after normalization for transfection efficiency with β-galactosidase.

[5] = test system: Smad1/5/8 (BRE) reporter; assay: Smad1/5/8 BMP (BRE) luciferase reporter assay in AKR-2B cells; settings: 1.5 μM polypeptide, 10 ng/mL BMP4, 12 hours
Method: as §3
FIGS. 4A-E. A point mutant of TAT-SH3-2 abolishes the inhibitory action on Smad3 responses. […] (E) AKR-2B cells were transiently transfected with a BMP (BRE), EGF (SRE), or PDGF (MMP-1) reporter construct and luciferase activity determined following 12 hour incubation in the absence (−) or presence (+) of the indicated ligand (10 ng/mL BMP4, EGF, or PDGF), inhibitor (10 μM Dorsomophin; 3 μM Lapatinib; 2 μM CP868) or TAT-SNX9(SH3) fusion polypeptide (1.5 μM). […]

[6] = test system: Smad3 (3TP) reporter; assay: Smad3 (3TP) luciferase reporter assay in AKR-2B cells; settings: 1.5 μM polypeptide, 5 ng/mL TGFβ, 12 hours
Method: as §3, §4

[7] = test system: Smad2 targets (MMP2, Goosecoid, Furin, MixL); assay: RT-PCR/qPCR of Smad2 responsive genes in AKR-2B cells; settings: 5 ng/mL TGFβ, 24 hours
Method: as §1, §2

[8] = target: T2, pSmad2 (Mus musculus, UniProt Q62432); assay: Nuclear import of pSmad2 (nuclear fractions Western) in AKR-2B cells; settings: 90 minutes transduction, TGFβ 5 ng/mL 1 hour
T2 construct: nuclear fractions were isolated, and Western blotted for pSmad2, pSmad3, or histone deacetylase 1 (HDAC); endogenous in cells; host or cells: AKR-2B cells
Method: FIGS. 1A-C. SH3 domain of sorting nexin 9 (SNX9) specifically binds pSmad3 and prevents nuclear import. (A) Cartoon depicting domains in full length (FL) SNX9 and constructs used for GST pull down assays. Lysates from AKR-2B cells untreated (−) or stimulated (+) for 45 minutes with 5 ng/mL TGFβ were incubated with GST beads or the indicated fusion polypeptides immobilized on GST beads. Bound polypeptides were eluted and assessed by Western analysis for pSmad3 or pSmad2. Cell lysate reflects signal obtained from 10 μg total protein. (B) AKR-2B cells were transduced for 90 minutes with the indicated concentrations of the TAT-SNX9(SH3) fusion polypeptides. Following washing and 1 hour TGFβ (5 ng/mL) treatment, nuclear fractions were isolated, and Western blotted for pSmad2, pSmad3, or histone deacetylase 1 (HDAC) (Left). Quantitation of nuclear pSmads was performed with Image J software and represents the mean+/−sd of two experiments (Right). (C) AKR-2B cells were transduced as in (B) with TAT-SH3 or TAT-LC (1.8 μM) and treated+/−TGFβ (5 ng/mL) for 1 hour. Immunofluorescence for Smad3 or the HA-tagged TAT-SNX9(SH3) fusion polypeptide was performed, and nuclei were stained with DAPI (Left panels). Quantitation of nuclear Smad3 from 30 cells in each of two experiments (Right).
AKR-2B cells were grown in DMEM supplemented with 10% fetal bovine serum (FBS). […]

T1 sequence (Q8BUN5 whole entry): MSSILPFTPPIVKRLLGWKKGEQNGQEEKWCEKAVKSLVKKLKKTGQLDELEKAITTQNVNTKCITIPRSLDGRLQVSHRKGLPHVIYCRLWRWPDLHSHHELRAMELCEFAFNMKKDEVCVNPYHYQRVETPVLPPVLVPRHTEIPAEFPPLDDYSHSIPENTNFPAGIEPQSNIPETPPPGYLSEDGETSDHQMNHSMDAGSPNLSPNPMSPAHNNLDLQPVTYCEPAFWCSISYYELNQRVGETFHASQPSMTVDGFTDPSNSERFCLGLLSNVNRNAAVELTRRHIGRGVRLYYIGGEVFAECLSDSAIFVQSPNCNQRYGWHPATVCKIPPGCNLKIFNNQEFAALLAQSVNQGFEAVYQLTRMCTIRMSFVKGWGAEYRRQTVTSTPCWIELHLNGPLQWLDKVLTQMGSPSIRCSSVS
T2 sequence (Q62432 whole entry): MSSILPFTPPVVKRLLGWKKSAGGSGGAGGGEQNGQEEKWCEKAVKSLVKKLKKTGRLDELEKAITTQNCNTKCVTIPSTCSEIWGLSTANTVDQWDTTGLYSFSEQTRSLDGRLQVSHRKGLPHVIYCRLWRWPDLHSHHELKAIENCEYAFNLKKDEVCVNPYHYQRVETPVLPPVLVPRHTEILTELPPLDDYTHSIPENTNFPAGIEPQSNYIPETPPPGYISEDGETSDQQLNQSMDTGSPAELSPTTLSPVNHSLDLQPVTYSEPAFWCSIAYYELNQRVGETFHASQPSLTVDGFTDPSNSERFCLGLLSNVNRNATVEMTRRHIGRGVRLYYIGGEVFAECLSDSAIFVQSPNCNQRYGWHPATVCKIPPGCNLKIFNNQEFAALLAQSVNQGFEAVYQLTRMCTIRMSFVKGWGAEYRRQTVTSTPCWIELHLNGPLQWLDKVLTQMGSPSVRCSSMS

| nuclear import of pSmad2 [8] | Molecule | TGFβ-stimulated anchorage-independent growth in soft agar (AIG) [1] | nuclear import of pSmad3 [2] | TGFβ induction of Smad3 targets / Smad3-dependent transcriptional responses [3] | Smad2 signaling (luciferase) [4] | Smad1/5/8 (i.e., BMP) signaling (luciferase) [5] | Smad3-dependent luciferase activity inhibited [6] | induction of Smad2 targets [7] |
| --- | --- | --- | --- | --- | --- | --- | --- | --- |
| – | B1 | inert | ineffective in modulating nuclear translocation | inert | – | – | – | – |
| no effect | B2 | inhibited | inhibited nuclear import of pSmad3 in a dose-dependent manner | inhibited | no discernible effect | no discernible effect | about 70% | unaffected |
